“Also recorded” adds a separate entry of the source.
Assay: Aqueous solubility of the probes
Assay type: physicochemical
Conditions: aqueous solutions
Protocol: The absorption spectra of equimolar solutions of the probes based on the absorption peak of the free dye, CyTE-777 are shown in FIG. 4. […] The absorption band due to dye aggregation becomes slightly weaker with increasing PEG chain length. […] To determine if the aggregated fluorophores lead to quenching, fluorescence spectra of all the three probes were measured and compared to the fluorescence spectrum of an equimolar solution of CyTE-777 (FIG. 5).
These cysteine proteases are known to be important in biological processes and have similar substrate selectivity. […] The Leu-Arg dipeptide cathepsin S substrate was previously reported to be partially but not completely selective to cathepsin S. The selectivity observed for cathepsin S in the present study is higher than what was expected from the literature reports.

SMILES: CC(C)C[C@H](NC(=O)CCNC(=O)CCOCCOCCOCCOCCNC(=O)CCSC1=C(/C=C/C2=[N+](CCCCS(=O)(=O)O)c3ccccc3C2(C)C)CCC/C1=C\C=C1\N(CCCCS(=O)(=O)O)c2ccccc2C1(C)C)C(=O)N[C@@H](CCCNC(=N)N)C(=O)NCCC(=O)NCCCC[C@H](NC(=O)CCNC(=O)[C@H](CCCNC(=N)N)NC(=O)[C@H](CC(C)C)NC(=O)CCNC(=O)CCOCCOCCOCCOCCNC(=O)CCSC1=C(/C=C/C2=[N+](CCCCS(=O)(=O)O)c3ccccc3C2(C)C)CCC/C1=C\C=C1\N(CCCCS(=O)(=O)O)c2ccccc2C1(C)C)C(=O)NCCCC[C@H](NC(=O)[C@H](CCCCNC(=O)CCNC(=O)[C@H](CCCNC(=N)N)NC(=O)[C@H](CC(C)C)NC(=O)CCNC(=O)CCOCCOCCOCCOCCNC(=O)CCSC1=C(/C=C/C2=[N+](CCCCS(=O)(=O)O)c3ccccc3C2(C)C)CCC/C1=C\C=C1\N(CCCCS(=O)(=O)O)c2ccccc2C1(C)C)NC(=O)CCNC(=O)[C@H](CCCNC(=N)N)NC(=O)[C@H](CC(C)C)NC(=O)CCNC(=O)CCOCCOCCOCCOCCNC(=O)CCSC1=C(/C=C/C2=[N+](CCCCS(=O)(=O)O)c3ccccc3C2(C)C)CCC/C1=C\C=C1\N(CCCCS(=O)(=O)O)c2ccccc2C1(C)C)C(=O)NCCC(=O)O [CyPEG-1]
- aqueous solubility: practically insoluble

SMILES: CC(C)C[C@H](NC(=O)CCNC(=O)CCOCCOCCOCCOCCNC(=O)CCOCCOCCOCCOCCNC(=O)CCSC1=C(/C=C/C2=[N+](CCCCS(=O)(=O)O)c3ccccc3C2(C)C)CCC/C1=C\C=C1\N(CCCCS(=O)(=O)O)c2ccccc2C1(C)C)C(=O)N[C@@H](CCCNC(=N)N)C(=O)NCCC(=O)NCCCC[C@H](NC(=O)CCNC(=O)[C@H](CCCNC(=N)N)NC(=O)[C@H](CC(C)C)NC(=O)CCNC(=O)CCOCCOCCOCCOCCNC(=O)CCOCCOCCOCCOCCNC(=O)CCSC1=C(/C=C/C2=[N+](CCCCS(=O)(=O)O)c3ccccc3C2(C)C)CCC/C1=C\C=C1\N(CCCCS(=O)(=O)O)c2ccccc2C1(C)C)C(=O)NCCCC[C@H](NC(=O)[C@H](CCCCNC(=O)CCNC(=O)[C@H](CCCNC(=N)N)NC(=O)[C@H](CC(C)C)NC(=O)CCNC(=O)CCOCCOCCOCCOCCNC(=O)CCOCCOCCOCCOCCNC(=O)CCSC1=C(/C=C/C2=[N+](CCCCS(=O)(=O)O)c3ccccc3C2(C)C)CCC/C1=C\C=C1\N(CCCCS(=O)(=O)O)c2ccccc2C1(C)C)NC(=O)CCNC(=O)[C@H](CCCNC(=N)N)NC(=O)[C@H](CC(C)C)NC(=O)CCNC(=O)CCOCCOCCOCCOCCNC(=O)CCOCCOCCOCCOCCNC(=O)CCSC1=C(/C=C/C2=[N+](CCCCS(=O)(=O)O)c3ccccc3C2(C)C)CCC/C1=C\C=C1\N(CCCCS(=O)(=O)O)c2ccccc2C1(C)C)C(=O)NCCC(=O)O [CyPEG-2]
- aqueous solubility: satisfactory aqueous solubility; also recorded: much higher aqueous solubility

SMILES: CC(C)C[C@H](NC(=O)CCNC(=O)CCOCCOCCOCCOCCNC(=O)CCOCCOCCOCCOCCNC(=O)CCOCCOCCOCCOCCNC(=O)CCSC1=C(/C=C/C2=[N+](CCCCS(=O)(=O)O)c3ccccc3C2(C)C)CCC/C1=C\C=C1\N(CCCCS(=O)(=O)O)c2ccccc2C1(C)C)C(=O)N[C@@H](CCCNC(=N)N)C(=O)NCCC(=O)NCCCC[C@H](NC(=O)CCNC(=O)[C@H](CCCNC(=N)N)NC(=O)[C@H](CC(C)C)NC(=O)CCNC(=O)CCOCCOCCOCCOCCNC(=O)CCOCCOCCOCCOCCNC(=O)CCOCCOCCOCCOCCNC(=O)CCSC1=C(/C=C/C2=[N+](CCCCS(=O)(=O)O)c3ccccc3C2(C)C)CCC/C1=C\C=C1\N(CCCCS(=O)(=O)O)c2ccccc2C1(C)C)C(=O)NCCCC[C@H](NC(=O)[C@H](CCCCNC(=O)CCNC(=O)[C@H](CCCNC(=N)N)NC(=O)[C@H](CC(C)C)NC(=O)CCNC(=O)CCOCCOCCOCCOCCNC(=O)CCOCCOCCOCCOCCNC(=O)CCOCCOCCOCCOCCNC(=O)CCSC1=C(/C=C/C2=[N+](CCCCS(=O)(=O)O)c3ccccc3C2(C)C)CCC/C1=C\C=C1\N(CCCCS(=O)(=O)O)c2ccccc2C1(C)C)NC(=O)CCNC(=O)[C@H](CCCNC(=N)N)NC(=O)[C@H](CC(C)C)NC(=O)CCNC(=O)CCOCCOCCOCCOCCNC(=O)CCOCCOCCOCCOCCNC(=O)CCOCCOCCOCCOCCNC(=O)CCSC1=C(/C=C/C2=[N+](CCCCS(=O)(=O)O)c3ccccc3C2(C)C)CCC/C1=C\C=C1\N(CCCCS(=O)(=O)O)c2ccccc2C1(C)C)C(=O)NCCC(=O)O [CyPEG-3]
- aqueous solubility: satisfactory aqueous solubility

Source: US20100189657A1, “INTRAMOLECULARLY QUENCHED FLUOROCHROME CONJUGATES AND METHODS OF USE” (THE GENERAL HOSPITAL CORPORATION, priority 2006, published 2010)
